Results: patent publication US20260250320A1, “LIPIDATED PEPTIDE INHIBITORS OF INTERLEUKIN-23 RECEPTOR” (Janssen Pharmaceutica NV, priority 2023, published 2026)
*1 amine or outer side, *2 acyl side, *3 side chain or, on linkers, in order; H or OH if unused. Bridges are numbered along the chain shown (N, C = ends). Primed or numbered codes have the meaning given here. Where no end group is shown, it is not given here. Side-chain parts run from the residue outwards. [ ]: non-standard residue; d: D form. The star is where a group is joined. code d = side-chain group of K(d): lysine given as (2R)-2-(4-((5-amino-5-carboxypentyl)amino)-4-oxobutanamido)-3-carboxy-N,N,N-trimethylpropan-1-aminium, C[N+](C)(C)C[C@@H](CC(=O)O)NC(=O)CCC(=O)*; TMAPF = 5-(4-(2-amino-2-carboxyethyl)phenoxy)-N,N,N-trimethylpentan-1-aminium, C[N+](C)(C)CCCCCOc1ccc(C[C@H](N[*:1])C(=O)[*:2])cc1; code d″ = lysine side-chain amide of a carnitine-succinyl group ((2R)-3-carboxy-N,N,N-trimethylpropan-1-aminium amide; PEG2′ = PEG2 spacer unit (not further defined); Trp(7-Me) = Cc1cccc2c(C[C@H](N)C(=O)O)c[nH]c12; γGlu = O=C(O)[C@H](CCC(=O)[*:2])N[*:1]; 2Nal = N[C@@H](Cc1ccc2ccccc2c1)C(=O)O; AEF = NCCOc1ccc(C[C@H](N)C(=O)O)cc1; 3Pal = N[C@@H](Cc1cccnc1)C(=O)O; succiniccarn = not defined here; NMeK = CN[C@@H](CCCCN)C(=O)O; NMecPEG3a = not defined here; Pen = CC(C)(S)[C@H](N)C(=O)O; NMeC18OH = not defined here; PEG2(3) = not defined here; 5cpaCO = not defined here; PEG12′ = not defined here; PEG2″ = PEG2 spacer unit; Thp = NC1(C(=O)O)CCOCC1; Sar = CNCC(=O)O

B1: SEQ ID NO: 77 (peptide)
peptide: XNTXXXXXXKNXX
modifications: 5cpaCO-Pen(3)-N-T-7MeW-K(Ac)-Pen(3)-AEF-2Nal-THP-K(PEG2PEG2gEC18OH)-N-3Pya-Sar-CONH2
B2: SEQ ID NO: 54 (peptide)
peptide: succiniccarn-[dR][Pen]NT[Trp(7-Me)]K(Ac)[Pen][AEF][2Nal][Thp]EN[3Pal][Sar]K([PEG2″-PEG2″-γGlu-C18OH])-NH2
modifications: disulfide 2-7 (inferred); reading uncertain; also: printed as succiniccarn-r-Pen(3)-N-T-7MeW-K(Ac)-Pen(3)-AEF-2Nal-THP-E-N-3Pya-Sar-K(PEG2PEG2gEC18OH)-CONH2
B3: SEQ ID NO: 71 (peptide)
peptide: [dR][Pen]NT[Trp(7-Me)]K([PEG2″-PEG2″-C18OH])[Pen][AEF][2Nal][Thp]EN[3Pal][Sar]-NH2
modifications: disulfide 2-7 (inferred); not fully specified (N-terminus); printed as 5cpaCO-r-Pen(3)-N-T-7MeW-K(PEG2PEG2C18OH)-Pen(3)-AEF-2Nal-THP-E-N-3Pya-Sar-CONH2
B4: SEQ ID NO: 49 (peptide)
peptide: succiniccarn-[dR][Pen]NT[Trp(7-Me)]K(Ac)[Pen][AEF][2Nal][Thp]K([PEG2″-PEG2″-γGlu-C18OH])N[3Pal][Sar]-NH2
modifications: disulfide 2-7 (inferred); reading uncertain; also: printed as succiniccarn-r-Pen(3)-N-T-7MeW-K(Ac)-Pen(3)-AEF-2Nal-THP-K(PEG2PEG2gEC18OH)-N-3Pya-Sar-CONH2
B5: SEQ ID NO: 81 (peptide)
peptide: 5cpaCO-[dR][Pen]NT[Trp(7-Me)]K(Ac)[Pen][AEF][2Nal][Thp]EN[3Pal][Sar]K([PEG2′-PEG2′-γGlu-C18OH])-NH2
modifications: disulfide 2-7 (inferred); reading uncertain; also: printed as 5cpaCO-r-Pen(3)-N-T-7MeW-K(Ac)-Pen(3)-AEF-2Nal-THP-E-N-3Pya-Sar-K(PEG2PEG2gEC18OH)-CONH2
B6: SEQ ID NO: 72 (peptide)
peptide: [dR][Pen]NT[Trp(7-Me)]K([PEG2″-PEG2″-C18OH])[Pen][AEF][2Nal][Thp]EN[3Pal][Sar]-NH2
modifications: disulfide 2-7 (inferred); not fully specified (N-terminus); printed as cPEG3aCO-r-Pen(3)-N-T-7MeW-K(PEG2PEG2C18OH)-Pen(3)-AEF-2Nal-THP-E-N-3Pya-Sar-CONH2
B7: SEQ ID NO: 55 (peptide)
peptide: [dR][Pen]K([PEG2″-PEG2″-γGlu-C18OH])T[Trp(7-Me)]K(Ac)[Pen][AEF][2Nal][Thp]EN[3Pal][Sar]-NH2
modifications: disulfide 2-7 (inferred); not fully specified (N-terminus); printed as cPEG3aCO-r-Pen(3)-K(PEG2PEG2gEC18OH)-T-7MeW-K(Ac)-Pen(3)-AEF-2Nal-THP-E-N-3Pya-Sar-CONH2
B8: SEQ ID NO: 86 (peptide)
peptide: XNTXKXXXXKNXX
modifications: MeCO-Pen(3)-N-T-7MeW-K(NMecPEG3a)-Pen(3)-AEF-2Nal-THP-K(PEG2PEG2gEC18OH)-N-3Pya-Sar-CONH2
B9: SEQ ID NO: 79 (peptide)
peptide: Ac-[dR][Pen]NT[Trp(7-Me)]K([PEG2′-PEG2′-γGlu-C18OH])[Pen][AEF][2Nal][Thp]K(NMecPEG3a)N[3Pal][Sar]-NH2
modifications: disulfide 2-7 (inferred); reading uncertain; also: printed as MeCO-r-Pen(3)-N-T-7MeW-K(PEG2PEG2gEC18OH)-Pen(3)-AEF-2Nal-THP-K(NMecPEG3a)-N-3Pya-Sar-CONH2
B10: SEQ ID NO: 78 (peptide)
peptide: XNTXXXXXXKNXX
modifications: cPEG3aCO-Pen(3)-N-T-7MeW-K(Ac)-Pen(3)-AEF-2Nal-THP-K(PEG2PEG2gEC18OH)-N-3Pya-Sar-CONH2
B11: SEQ ID NO: 73 (peptide)
peptide: [dR][Pen]K([PEG2″-PEG2″-γGlu-C18OH])T[Trp(7-Me)]K(Ac)[Pen][AEF][2Nal][Thp]EN[3Pal][Sar]-NH2
modifications: disulfide 2-7 (inferred); not fully specified (N-terminus); printed as 5cpaCO-r-Pen(3)-K(PEG2PEG2gEC18OH)-T-7MeW-K(Ac)-Pen(3)-AEF-2Nal-THP-E-N-3Pya-Sar-CONH2
B12: SEQ ID NO: 50 (peptide)
peptide: XNTXXXXXXXNXXK
modifications: MeCO-Pen(3)-N-T-7MeW-K(Ac)-Pen(3)-AEF-2Nal-THP-K(d)-N-3Pya-Sar-K(PEG2PEG2gEC18OH)-CONH2

molecular target: T1, interleukin-23 receptor (IL-23R) (UniProt Q5VWK5 24-629, limits assumed); experiment: cell-based or functional assay
T1 sequence (looked up): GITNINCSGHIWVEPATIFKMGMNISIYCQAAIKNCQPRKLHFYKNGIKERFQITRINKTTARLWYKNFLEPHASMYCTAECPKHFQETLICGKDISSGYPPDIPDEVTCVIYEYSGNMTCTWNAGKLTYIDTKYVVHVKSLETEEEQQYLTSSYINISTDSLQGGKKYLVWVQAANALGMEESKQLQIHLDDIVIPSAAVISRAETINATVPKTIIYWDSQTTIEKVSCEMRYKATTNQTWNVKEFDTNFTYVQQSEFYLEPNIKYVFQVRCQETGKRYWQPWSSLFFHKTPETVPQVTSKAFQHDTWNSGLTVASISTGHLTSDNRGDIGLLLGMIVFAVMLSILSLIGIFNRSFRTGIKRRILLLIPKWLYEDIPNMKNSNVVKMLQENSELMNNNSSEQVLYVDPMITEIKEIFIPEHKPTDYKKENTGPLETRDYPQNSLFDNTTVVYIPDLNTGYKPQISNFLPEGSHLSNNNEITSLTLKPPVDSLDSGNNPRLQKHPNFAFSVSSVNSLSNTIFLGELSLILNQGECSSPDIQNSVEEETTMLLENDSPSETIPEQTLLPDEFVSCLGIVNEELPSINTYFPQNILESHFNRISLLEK

PBMC pSTAT3 IC50, < 0.5 nM:
XNTXXXXXXKNXX (MeCO-Pen(3)-N-T-7MeW-K(Ac)-Pen(3)-AEF-2Nal-THP-K(PEG12gEC20OH)-N-3Pya-Sar-CONH2) [SEQ ID NO: 162]
B1
B2
Ac-[dK]([PEG2″-PEG2″-γGlu-C18OH])[Pen]NT[Trp(7-Me)]K(Ac)[Pen][AEF][2Nal][Thp]EN[3Pal][Sar]-NH2 (disulfide 2-7) [SEQ ID NO: 58]
B3
B4
Ac-[dR][Pen]NT[Trp(7-Me)]K([PEG2″-PEG2″-γGlu-C18OH])[Pen][AEF][2Nal][Thp]EN[3Pal][Sar]-NH2 (disulfide 2-7) [SEQ ID NO: 59]
B5
B6
Ac-[dR][Pen]NT[Trp(7-Me)]K(Ac)[Pen][AEF][2Nal][Thp]K([PEG12′-γGlu-C18OH])N[3Pal][Sar]-NH2 (disulfide 2-7 (inferred)) [SEQ ID NO: 146]
B7
B8
Ac-[dR][Pen]NT[Trp(7-Me)]K(code d)[Pen][AEF][2Nal][Thp]K([PEG2′-PEG2′-γGlu-C18OH])N[3Pal][Sar]-NH2 (disulfide 2-7 (inferred)) [SEQ ID NO: 48]
Ac-[dR][Pen]NT[Trp(7-Me)]K(code d″)[Pen][AEF][2Nal][Thp]EN[3Pal][Sar]K([PEG2″-PEG2″-γGlu-C18OH])-NH2 (disulfide 2-7 (inferred)) [SEQ ID NO: 52]
Ac-[Pen]NT[Trp(7-Me)]K(Ac)[Pen][TMAPF][2Nal][Thp]K([PEG2′-PEG2′-γGlu-C18OH])N[3Pal][Sar]-NH2 (disulfide 1-6 (inferred)) [SEQ ID NO: 85]
B9
cPEG3aCO-[dR][Pen]NT[Trp(7-Me)]K(Ac)[Pen][AEF][2Nal][Thp]EN[3Pal][Sar]K([PEG2(3)-PEG2(3)-γGlu-C18OH])-NH2 (disulfide 2-7 (inferred)) [SEQ ID NO: 160]
B10
Ac-[dR][Pen]K(code d″)T[Trp(7-Me)]K(Ac)[Pen][AEF][2Nal][Thp]EN[3Pal][Sar]K([PEG2″-PEG2″-γGlu-C18OH])-NH2 (disulfide 2-7 (inferred)) [SEQ ID NO: 53]
B11
B12
Ac-[dR][Pen]NT[Trp(7-Me)]K(Ac)[Pen][AEF][2Nal][Thp]EN[3Pal][NMeK]([PEG2′-NMePEG2-NMegE-NMeC18OH])-NH2 (disulfide 2-7 (inferred); reading uncertain) [SEQ ID NO: 80]
